Source: patent US20110065645A1, “Compositions and Methods for Modulating Neuron Degeneration and Neuron Guidance” (The Regents of the University of California, priority 2009, published 2011)

How the values were obtained:
[1] = tested on: cortical neurons; assay: Cortical neuron death/survival assay under PKCζ inhibition (Tuj1, TUNEL, DAPI staining); assay type: cell-based
Excerpt: 1. PKCζ is required for survival of cortical neurons. E15.5 cortical neurons were dissociated and cultured for 2 days in the presence of various concentrations of a cell membrane penetrating myristoylated peptide derived in the pseudosubstrate domain of PKC (FIGS. 12A-12D). This peptide is a specific inhibitor of PKCζ.
2. Axon degeneration procedes cell body death when PKC is inhibited. We examined the timing of axon degeneration and cell body death. […] The death induced by PKCζ inhibition is much faster than Aβ peptide induced neuronal death (FIG. 12D), probably because the PKCζ is an essential kinase and peptide inhibition causes instant death, whereas Aβ has to bind to cell surface receptor and trigger a signaling cascade to cause death, which requires a longer time.
3. Wnts are trophic factors for cortical neurons. […] Nuclear shrinkage (pyknosis) is a hallmark of neuronal cell death. Using DAPI staining, we can visualize the cell nuclei (FIG. 14B). […] Initial cortical axons and dendrite form and grow but axons start to disintegrate at E18.5 (FIG. 14D, from Wang et al 2006),^(13) (FIGS. 12F, 12K). Based on our preliminary results, we propose that Wnts are not only axon guidance molecules but also regulate neuronal survival and axon degeneration acting via PKC (FIG. 15).
3. Survival and cell death assays for screening of monoclonal antibodies and small compounds. We use the same cell death/survival assay as described in FIGS. 12A-14D and use microtubule staining to analyze the integrity of microtubules, DAPI stain to measure the size of cell nuclei and TUNEL staining to assay cell death. Microtubule disassembly is quantified by staining intensity of Tuj1 and Tau antibodies. The size of cell nuclei is binned into difference sizes and the distribution of the nuclei size is used as quantification of pyknosis (FIG. 14C).

[2] = tested on: β-catenin; assay: β-catenin immunostaining in commissural axon growth cones; assay type: cell-based; details: bath application; LiCl 2 mM
Excerpt: To understand how atypical PKC/Par pathway regulates axon guidance, we set out to determine the subcellular localization of aPKC, their substrates and downstream cellular effectors. […] Thus, our high-resolution confocal imaging detects a tendency of β-catenin being concentrated to one side of the growth cone (FIG. 9A). It is possible that there is low level of Wnt proteins in the culture (many neurons express Wnts). […] Therefore, it is also possible that intrinsic aPKC signaling can create chirality within the growth cone with out extrinsic signals. Such intrinsic polarity may then robustly regulate cellular morphology upon directional instructions from the environment such as a Wnt gradient. It is well known that GSK3β phosphorylates β-catenin, which then leads to proteosome-mediated degradation of β-catenin. And it is also known that GSK3β is phosphorylated and inhibited by PKCζ^(1,2). Therefore, inhibiting GSK3β or the proteosome activity generally should increase β-catenin level throughout the growth cone, canceling the asymmetry. […] We are now testing the hypothesis that Wnt proteins may locally activate PKCζ, which then inhibits GSK3β and locally stabilizes β-catenin, which is part of the asymmetric cellular mechanism leading to directional choice of a growth cone. We examine the localization of β-catenin in post-crossing commissural axon growth cones in the “post-crossing” assay and “open-book” assays.

[3] = tested on: JNK; assay: Phospho-Jun immunoblot in dissociated commissural neurons; assay type: cell-based, rat; details: within 15 minutes of bath application; 200 ng/ml
Excerpt: JNK is activated by Wnt5a in commissural axons and required for their A-P guidance. Several Wnt genes are expressed in an anterior-posterior gradient in or around the floor plate of the spinal cord. However, the mechanisms of how Wnt signaling mediates axon attraction and growth have yet to be elucidated. We tested whether JNK signaling is activated in commissural neurons via Wnt5a stimulation by measuring the levels of phospho Jun (FIG. 20A) and also examined whether JNK is required for A-P guidance of commissural axons. Commissural neurons were cultured for 36 hrs and subject to bath application of Wnt5a. […] Furthermore, endogenous Fzd3 and Vgl2 proteins can be detected in rat E13 commissural neuron lysates after 36 hours in culture (anti-Fzd3 and anti-Vgl2 IB, FIG. 20A). The specificity of Fzd3 and Vgl2 antibodies for western blot analysis was validated using knock and mutant mouse line (FIG. 27D and FIG. 27E).
Commissural neuron culture, treatment and lysis. Rat E13 embryos were dissected and commissural neuron culture was prepared as previously described (Augsburger et al., 1999). […] The cells were then lysed on ice and the lysates were analyzed on immunoblots.

B1: Wnt5a: recombinant Wnt5a protein (R&D Systems) (protein, UniProt P41221 62-380, looked up)
Protein Wnt-5a: IIGAQPLCSQLAGLSQGQKKLCHLYQDHMQYIGEGAKTGIKECQYQFRHRRWNCSTVDNTSVFGRVMQIGSRETAFTYAVSAAGVVNAMSRACREGELSTCGCSRAARPKDLPRDWLWGGCGDNIDYGYRFAKEFVDARERERIHAKGSYESARILMNLHNNEAGRRTVYNLADVACKCHGVSGSCSLKTCWLQLADFRKVGDALKEKYDSAAAMRLNSRGKLVQVNSRFNSPTTQDLVYIDPSPDYCVRNESTGSLGTQGRLCNKTSEGMDGCELMCCGRGYDQFKTVQTERCHCKFHWCCYVKCKKCTEIVDQFVCK
[1]; 5 um pseudosubstrate peptide
  axon degeneration / reduction of microtubule staining (Tuj1): much less degeneration was seen
[1]; 10 um pseudosubstrate peptide
  axons remaining judged by Tuj1 staining: more axons still remain
[1]; pretreatment before pseudosubstrate peptide
  cell death induced by PKC inhibition: block/reduce the cell death
[2]
  β-catenin level and asymmetry in the growth cone: increased the levels of β-catenin throughout the growth cone
[3]
  increase of endogenous phospho-Jun levels: 4 fold
